From patent US20100136018A1 (Ablynx, published 2010)
Residue numbers refer to the chain shown, from its start.

Assays:
[1] = target: T1, ectodomain of human pIgR (R&D Systems Cat #2717-PG) (human, UniProt P01833 19-638); experiment: ELISA, pIgR ectodomain coated at 5 ug/ml, 10 ul periplasmic extract in 100 ul, anti-myc detection
T1 construct: extracellular domain; Bought protein, immobilised on Maxisorp plates; also called pIgR ectodomain
Protocol: (§1) In short, 5 ug/ml pIgR ectodomain was immobilized on Maxisorp microtiter plates (Nunc) and free binding sites were blocked using 4% Marvel in PBS. Next, 10 ul of periplasmic extract containing Nanobody of the different clones in 100 ul 2% Marvel PBST were allowed to bind to the immobilized antigen. […] Binding specificity was determined based on OD values compared to controls having received no Nanobody (low control).

[2] = target: T1, ectodomain of human pIgR (R&D Systems …); experiment: competition ELISA, pIgR ectodomain coated at 5 ug/ml, 1 ug/ml IgA preincubated with purified Nanobody at 1600, 200, 25 and 3.3 nM, bound IgA detected with anti-IgA; blocked ligand IgA
[3] = target: T2, ectodomain of human FcgR1 (R&D Systems Cat #1257-FC) (human, UniProt P12314 16-292); experiment: ELISA, FcgR1 ectodomain coated at 3 ug/ml, 10 ul periplasmic extract in 100 ul, anti-myc detection
T2 construct: extracellular domain; Bought protein, immobilised on Maxisorp plates; also called FcgR1 ectodomain; Fc gamma R1
T2 sequence (P12314 16-292): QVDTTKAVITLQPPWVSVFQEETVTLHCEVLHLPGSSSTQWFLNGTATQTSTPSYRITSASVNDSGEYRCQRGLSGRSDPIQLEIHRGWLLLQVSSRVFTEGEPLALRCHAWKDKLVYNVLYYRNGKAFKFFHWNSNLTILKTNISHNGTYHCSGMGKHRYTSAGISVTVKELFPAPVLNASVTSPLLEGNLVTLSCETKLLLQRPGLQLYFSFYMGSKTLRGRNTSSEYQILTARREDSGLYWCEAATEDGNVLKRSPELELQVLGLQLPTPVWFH
Protocol: as §1, with “3” for “5”, “FcgR1” for “pIgR”

[4] = target: T2, ectodomain of human FcgR1 (R&D Systems …); experiment: designation in the sequence table; clones from phage selection and ELISA screening on FcgR1 ectodomain
[5] = target: T1, ectodomain of human pIgR (R&D Systems …); experiment: designation in the sequence table; clones from phage selection and ELISA screening on pIgR ectodomain

T1 sequence (P01833 19-638): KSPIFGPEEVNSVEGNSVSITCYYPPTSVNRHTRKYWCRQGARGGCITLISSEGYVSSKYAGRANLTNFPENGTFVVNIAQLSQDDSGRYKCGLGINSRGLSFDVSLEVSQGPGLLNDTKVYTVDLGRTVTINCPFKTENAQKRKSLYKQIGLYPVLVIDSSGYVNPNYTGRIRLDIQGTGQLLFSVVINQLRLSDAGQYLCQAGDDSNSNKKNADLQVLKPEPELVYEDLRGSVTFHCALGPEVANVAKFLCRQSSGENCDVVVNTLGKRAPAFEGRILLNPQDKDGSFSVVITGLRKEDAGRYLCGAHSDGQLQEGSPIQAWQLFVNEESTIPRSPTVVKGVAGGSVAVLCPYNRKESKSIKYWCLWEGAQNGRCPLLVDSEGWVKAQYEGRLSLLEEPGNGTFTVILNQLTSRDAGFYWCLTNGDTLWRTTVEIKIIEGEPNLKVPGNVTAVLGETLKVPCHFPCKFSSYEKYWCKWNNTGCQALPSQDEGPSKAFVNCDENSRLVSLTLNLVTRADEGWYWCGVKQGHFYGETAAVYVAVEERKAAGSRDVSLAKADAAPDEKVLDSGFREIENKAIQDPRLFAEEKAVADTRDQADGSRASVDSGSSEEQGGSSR

B1: 1_g10 (VHH)
VHH: EVQLVESGGGLVQAGDSLRLSCAASGRTFSTYAMAWFRQAPGKDREFVAAISWSSDMTYYLDSVKGRFTISRDNAKNTVFLQMNSLKPEDTAVYYCASGAYYAGSSTSPYNYWGQGTQVTVSS
notes: Nanobody against pIgR
[1]
  binding result: binds

B2: 1D7 (VHH)
VHH: EVQLVESGGGLVQSGGSLRLSCAASGRAFNYYAMGWFRQAPGKERELVAVINWSGGTTSYADSVKGRFTISRSNAKNTVYLQMSSLKPEDTAVYYCAADSIYRTSKDYNYWGQGTQVTVSS
notes: Nanobody against pIgR
[2]
  IC50 (read off the curve): ~0.08 µM

B3: 49C5 (VHH)
VHH: EVQLVESGGGLVQAGGSLGLSCVASGRTFVSGGMGWFRQAPGKEREFVASIVWIGGRTYYADSVKGRFTISGDNAKSTVTLQMNSLKPEDTATYYCADGDLATGTYDYWGQGTQVTVSS
notes: Nanobody against FcgR1
[3]
  binding result: binds

B4: 49 E10 (VHH)
VHH: B3 VHH with G8V, A14T, G19R, S50A, T93L
notes: Nanobody against FcgR1
[4]
  binding result: binds

B5: 48D11 (VHH)
VHH: EVQLVESGGGLVQAGDSLTLSCVASGRTFSNYGMGWFRQAPGKEREFVASINWGDGNTYYANSVKDRFAISKDHAKNTVYLQMNSLKPEDTALYYCAAVSSNTEIFDTWGQGIQVTVSS
notes: Nanobody against FcgR1
[4]
  binding result: binds

B6: 48D6 (VHH)
VHH: B5 VHH with N31A, D55G
notes: Nanobody against FcgR1
[3]
  binding result: binds

B7: 49 E4 (VHH)
VHH: B5 VHH with S30N, D55N, N57K, I105T
notes: Nanobody against FcgR1
[3]
  binding result: binds

B8: 49D4 (VHH)
VHH: B5 VHH with T28R, N31A
notes: Nanobody against FcgR1
[3]
  binding result: binds

B9: 49F4 (VHH)
VHH: B5 VHH with N31A, Y32N, N52A, T103S, I105T
notes: Nanobody against FcgR1
[4]
  binding result: binds

B10: 49F9 (VHH)
VHH: B5 VHH with S30N, D55N, N57K, S63P, I105T
notes: Nanobody against FcgR1
[3]
  binding result: binds

B11: 4_a7 (VHH)
VHH: EVQLVESGGGLVQAGGSLRLSCEDSGRTFGDYIMGWFRQAPGKERDFVAAISWTGDSTYYKYYSDSAKGRFTASRDNAKNTAYLQMNGLKPEDTAVYYCAARTFRIDYDPRTASTYNYWGQGIQVTVSS
notes: Nanobody against pIgR
[1]
  binding result: binds

B12: 4_h1 (VHH)
VHH: EVQLVKSGGGLVQAGDSLRLSCAASGRTSSSVTMGWFRQAPGKERDFVAAISWSGGSTYYADSVKGRFTISRDNAKNTVYLQMNSLKPEDTAVYYCAAVVPSDPIIYYTDYVDYDYWGQGTQVTVSS
notes: Nanobody against pIgR
[1]
  binding result: binds

B13: 1B7 (VHH)
VHH: EVQLVESGGGLVQAGGSLRLSCAASGFTFDDYAIGWFRQAPGKEREWVSCISRSDGSTYYADSVKGRFTISSDNAKNTVYLQMNSLKPEDTAVYHCAADAIGSFPCPAGVYDYWGQGTQVTVSS
notes: Nanobody against pIgR
[5]
  binding result: binds

B14: 4G11 (VHH)
VHH: EVQLVESGGGLVQAGGSLRLSCAASGFTFDDYAIGWFRQAPGKEREGVSCISSRDGMTYYADSVKGRFTISSDNARNTVYLQMNSLKPEDTAVYYCAADLVGSFPCPVAAYDYWGQGTQVTVSS
notes: Nanobody against pIgR
[5]
  binding result: binds

B15: 4_g6 (VHH)
VHH: B14 VHH with M57T, R76K
notes: Nanobody against pIgR
[1]
  binding result: binds

B16: 4_e11 (VHH)
VHH: EVQLVESGGGLVQAGGSLRLSCAASGFTFDDYAIGWFRQAPGKEREGVSCINNSDGSTYYADSVKGRFTISSDNAKNTVYLQMNSLKPEDTAVYYCAADFVGGSYCLFPTYNYWGQGTQVTVSS
notes: Nanobody against pIgR
[5]
  binding result: binds

B17: 2_f3 (VHH)
VHH: EVQLVESGGGLVQAGGSLRLSCAASGRTFTIYTMGWFRQAPGKAREFISALRWSGGSTYTFYADSVKGRFTISRDNAKNTLYLQMNSLKSEDTAIYYCGMVDPRAPYMRPDSTDSYAYWGQGTQVTVSS
notes: Nanobody against pIgR
[5]
  binding result: binds

B18: 2_d2 (VHH)
VHH: EVQLVESGGGQVQAGGSLRLSCVASERTFSYYDLAARAWFRQAPGKERELVSASTWNGGYTYYVDSVKGRFTVSTDDAGDTMYLQMNSLEPEDTAVYYCAARRAYSSDLHDYRTFDYWGQGTQVTVSS
notes: Nanobody against pIgR
[5]
  binding result: binds

B19: 1C2 (VHH)
VHH: EVQLVESGGGLAQPGGSLRLSCAASGFAFSSYWMYWVRQAPGKGLEWVSAISTGGGGTYYADSVKGRFTISRDNAKNTLYLQMNSLKPEDTARYYCARDEAPTFDYSGNYAYTGSDPNDYWGQGTQVTVSS
notes: Nanobody against pIgR
[5]
  binding result: binds

B20: 1C7 (VHH)
VHH: EVQLVESGGGLVQPGGSLRLSCAASGFAFSRYGMYWVRQAPGKGLEWVSTINSGGDYIIYADSVKGRFTISRDNAKNTLYLQMNSLKPEDTAVYYCAEGYRGSEWPPPAFTLQRADFASWGQGTQVTVSS
notes: Nanobody against pIgR
[5]
  binding result: binds

B21: 1 E2 (VHH)
VHH: EVQLVESGGGLVQAGGSLRLSCVASGFILREYNMGWFRQAPGKEREIVAAIAWTGTNSYYVDSVKGRFTISRDDTKNTVYLQMNSLNPEDTGVYHCAAEGYVSNFPRSSADEYDYWGQGTQVTVSS
notes: Nanobody against pIgR
[5]
  binding result: binds

B22: 4C11 (VHH)
VHH: EVQLVESGGGLVQPGGSLRLSCAASGFTFSSYAMTWVRQGLGKGLEWVSIISGNGGSTSYADSVKGRFTISRDNAKNTLYLQMNSLKPEDTAVYYCAKWDGLGTLPGSQGTQVTVSS
notes: Nanobody against pIgR
[5]
  binding result: binds

B23: 4 E9 (VHH)
VHH: EVQLVESGGGLVQAGGSLRLSCAASGSILSTNDMGWYRQAPGNQRELVARISRGSSTIYTESVKGRFTISRDNAKNTVYLQMNSLKPEDTAVYYCNADMLPSDLSHGYYYRDYWGQGTQVTVSS
notes: Nanobody against pIgR
[5]
  binding result: binds
